# Test: soluble on expression in E. coli; label from the status in PepcDB or PDB records
row,Sequence,soluble on expression in E. coli
1,NVFMRKKDNTIDYRYFIEPNIMTSNIDDLLLEKPVAFQLEQFQKELIDSNVNPQLVQLVVDDATI,not soluble
2,NVQHQLAQFQQLQQQAQAISVQKQTVEMQINETQKALEELSRAADDAEVYKSSGNILIRVAKDELTEELQEKLETLQLREKTIERQEERVMKKLQEMQVNIQEAMKGAG,soluble
3,PCFALTSPEAGSDAGSIPDYGVVCKGEWEGKEVLGMRLTWNKRYITLAPVATVLGLAFKLRDPEGLLGDKEDLGITCALIPTDVKGVEIGNRHFPLNVPFQNGPTRGKDIFVPIDFIIGG,not soluble
4,PDPNRFDRDRLFNAVSRGVPEDLAGLPEYLSKTSKYLTDSEYTEGSTGKTCLMKAVLNLKDGVNACILPLLQIDRDSGNPQPLVNAQCTDDYYRGHSALHIAIEKRSLQCVKLLVENGANVHARACGRFFQKGQGTCFYFGELPLSLAACTKQWDVVSYLLENPHQPASLQATDSQGNTVLHALVMISDNSAENIALVTSMYDGLLQAGARLCPTVQLEDIRNLQDLTPLKLAAKEGKIEIFRHILQREFS,soluble
5,PDVSALDEVVVEAYGSKTRKITTTGAVTSVDVATLQTPATSLANMLGGRVAGIISTQGSGEPGKNISDFWIRGIGTFGANASALVLIDGLEGSLNDVDPADIESFSVLKDASATAMYGVRGANGVVLVTTKRGKQEK,not soluble
6,PEDPSDLLQHVKFQSSNFENILTWDSGPEGTPDTVYSIEYKTYGERDWVAKKGCQRITRKSCNLTVETGNLTELYYARVTAVSAGGRSATKMTDRFSSLQHTTLKPPDVTCISKVRSIQMIVHPTPTPIRAGDGHRLTLEDIFHDLFYHLELQVNRTYQMHLGGKQREYEFFGLTPDTEFLGTIMILVPTWAKESAPYMCRVKTLPDRTWT,soluble
7,PEGSRDILFEECTIKNNIENILRNSYINVGYEEVRSPTLEFYDVYNLENQPISQEKMYKLFDNTGRILVLRPDMTTPIARICATKLKNRVYPLKLSYTGNIYRMNKALNGKISEITQSGIEILGFSSLKADAEVIITAIKAILKTGLKNFKIEIGQVEFFKSIISDTALKEQDTEKLRNFIENKNFSKVEEFILRNSDLIGETSSKVLMNLPNLFGGKEVIEKAEQLTSNKQAIEALKKVRDLYDIVKRAGFGEYILIDLGMVQHINYYTGLIFRGYAHGIGDDLLSGGRYDKLLGQFGYDIPATGLAINVDNLVAALDDCVRENL,not soluble
8,PEKVTVVPKFGDWDENNPSSADGYTHIFNKVREER,soluble
9,PFEPKIVAFVCTYCTYAGADLAGTSRLNYAPNVRIVRLPCTGRISPMFILKALQKGADSVLVSGCHPGDCHFTAGNYHARRRWTVFRALLSFTGIPEERIRFSWISAAEGAKFAELINEITDDTRKLG,not soluble
10,PFKESQARGLLQDNMANSYNGGDFEDGLLNLSKEVFPTDKYLYQDGQFLDKKTINAYLNPKYTKREIDKMSEKDKKDKKANENLGLNPSHEGETNPEKIAEKSPAYLSNILEQDFYGGGDTKGKNIKGMTIGLAMNSVYYYKKEKDGPTFSKKLDDSEVKKQGKQMASEILSRLRENDDLKDIPIHFAIYKQSSEDSITPGEFITQATAEKSQTKLNEWHNINEKSALLPSSTAADYDENLNNNFKQFNDNLQSYFSNFTQAVGKVKFVDKKPQRLVVDLPIDYYGQAETIGITQYVTEQANKYFDKIDNYEIRIKDGNQPRALISKTKDDKEPQVHIYSN,soluble
11,PISKMVTAHFVLIHTICHGAWIWHKLKPALERAGHKVTALDMAASGIDPRQIEQINSFDEYSEPLLTFLEKLPQGEKVIIVGEACAGLNIAIAADRYVDKIAAGVFHNSLLPDTVHSPSYTVEKLLESFPDWRDTEYFTFTNITGETITTMKLGFVLLRENLFTKCTDGEYELAKMVMRKGSLFQNVLAQRPKFTEKGYGSIKKVYIWTDQDKIFLPDFQRWQIANYKPDKVYQVQGGDHKLQLTKTEEVAHILQEVADAYA,soluble
12,PKKEVVRIHASSGTTGKPTVVGYTKKDLKTWAELISRVVTAAGVTDEDTAQVAFGYGLFTGGFGLHYGLENVGASVIPMSSGNTEKQIMLMKDFETTVLICTPSYALYISEVAQKMGIDPKKDLKLKIGLFGGEACSESARTEIESKWGILATQNYGMSELMGPGVSGECEYQCGMHIS,not soluble
13,PKRSDARLPQVAAFSYVEDLLQAGVHVHLYTNGFLHSKLIMVDSQVASIGSTNMDFRSLENNFEFNGIIYDEPTVHRLEAIFFEDLLQSEPLDLKRWRKRSRIKKFSESFVRLFSPLL,not soluble
14,PLESCVRLHSSSGTTGNPTVMLYTQNDLDNWSKLMARCMSLSGANRHDIFQNIMGYGLFTGGIGFHYGAERLGMLTIPIGPGNSKRQGWFMKHLGVSVVHILPSYAFRLYSHLKEEGVDPKELPLRIAFIGAEPHSEAMRREIERLYGIKAFNSFGLSEMNGPGVAFECQEQSGMHLW,not soluble
15,PLGSQYFLKVLIPSYAAGSIIGKGGQTIVQLQKETGATIKLSKSKDFYPGTTERVCLIQGTIEALNAVHGFIAEKIREMPQNVAKTEPVSILQPQTTVNPDRANQVKIIVPNSTAGLIIGKGGATVKAIMEQSGAWVQLSQKPDGINLQNRVVTVSGEPEQNRKAVELIIQKIQEDPQ,soluble
16,PLIAVFIGSILFDYRLAQETADTAYDHSLNNAALDIAAYIQTVGLSPKLRLTPEAEAMLRHDAVDKIFFAVRDSNKQLLIGDAQLPAYPGAIHKRPVFIDDVYQGEKIRATTQLIMVDANEITITVAETMREREHASNRIL,not soluble
17,PLLIKNGEIITADSRYKADIYAEGETITRIGQNLEAPPGTEVIDATGKYVFPGFIDPHVHIYLPFMATFAKDTHETGSKAALMGGTTTYIEMCCPSRNDDALEGYQLWKSKAEGNSYCDYTFHMAVSKFDEKTEGQLREIVADGISSFKIFLSYKNFFGVDDGEMYQTLRLAKELGVIVTAHCENAELVGRLQQKLLSEGKTGPEWHEPSRPEAVEAEGTARFATFLETTGATGYVVHLSCKPALDAAMAAKARGVPIYIESVIPHFLLDKTYAERGGVEAMKYIMSPPLRDKRNQKVLWDALAQGFIDTVGTDHCPFDTEQKLLGKEAFTAIPNGIPAIEDRVNLLYTYGVSRGRLDIHRFVDAASTKAAKLFGLFPRKGTIAVGSDADLVVYDPQYRGTISVKTQHVNNDYNGFEGFEIDGRPSVVTVRGKVAVRDGQFVGEKGWGKLLRREPMYF,soluble
18,PLPEACADMLWSNLGLLAAEQILPVLHNWARALKTDGLLFFTCFGRDTLAELKCRLKENGIESRSALFPDMHDLGDMLAENGFYDPVTDTAKLVLDYKKAETFWADMDTLGVWRAMAWNDENAARSCVGTIFEREGGLGITLETVYGHAVK,not soluble
19,PNISDIIEQYLKQVLNMSDQDIVEIKRSEIANKFRCVPSQINYVINTRFTLERGYIVESKRGGGGYIRIMKVKTKSEAQLIDQLLELIDHRISQSSAEDVIKRLMEEKVISEREAKMMLSVMDRSVLYIDLPERDELRARMLKAMLTSLKYKLEI,soluble
20,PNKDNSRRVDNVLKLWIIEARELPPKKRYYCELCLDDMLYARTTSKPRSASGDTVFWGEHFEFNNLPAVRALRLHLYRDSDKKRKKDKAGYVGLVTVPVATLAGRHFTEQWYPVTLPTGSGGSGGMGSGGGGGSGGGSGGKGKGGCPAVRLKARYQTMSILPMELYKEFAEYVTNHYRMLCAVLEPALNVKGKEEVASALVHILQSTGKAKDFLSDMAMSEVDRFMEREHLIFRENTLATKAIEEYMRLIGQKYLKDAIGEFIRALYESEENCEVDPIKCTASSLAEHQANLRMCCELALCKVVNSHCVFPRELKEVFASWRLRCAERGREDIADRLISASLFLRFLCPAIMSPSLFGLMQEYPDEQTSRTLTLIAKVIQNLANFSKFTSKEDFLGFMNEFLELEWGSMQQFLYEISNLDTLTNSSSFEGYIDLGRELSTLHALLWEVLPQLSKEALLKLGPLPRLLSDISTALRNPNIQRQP,soluble
21,PQEKLKLLAFTGTKGKTTAAYFAYHMLKESYKPAMFSTMNTTLDGKTFFKSQLTTPESLDLFAMMAECVTNGMTHLIMEVSSQAYLVDRVYGLTFDVGVFLNISPDHIGPIEHPTFEDYFYHKRLLMENSRAVVINSGMDHFSFLADQVADQEHVFYGPLSDNQITTSQAFSFEAKGQLAGHYDIQLIGHFNQENAMAAGLACLRLGASLADIQKGIAKTRVPGR,not soluble
22,PQFGLFSKYRTPNCSQYRLPGCPRHFNPVCGSDMSTYANECTLCMKIREGGHNIKIIRNGPC,soluble
23,PQLDEARTNGLMKTLFPHQVLSTIQASRILKTYNGVVIADSTGLGKTRVAINLAVMAINDGRNPLLIAPKSALETTWKDEMDKTHVHIDSKRSEYLSQHPDEAIKEIQGKDFIIVDEAHYFKSPGSNRYSVLRDLMAAGQKQIVLLTATP,not soluble
24,PREPVVNDEMCDVCEVWTAESLFPCRVCTRVFHDGCLRRMGYIQGDSAAEVTEMAHTETGWSCHYCDNINLLLTEE,soluble
25,PRVELEIPEDVDAEQDHLDITVEGDNGSVTRRLWYPDIDVSVDGDTVVIESDEDNAKTMSTIGTFQSHIENMFHGVTEGWEYGMEVFYSHFPMQVNVEGDEVVIENFLGEKAPRRTTIHGDTDVEIDGEELTVSGPDIEAVGQTAADIEQLTRINDKDVRVFQDGVYITRKPNRGDA,soluble
26,PTHIAIGIYFNPEIAPAPFISLIETNQCALAVRKYANEVGIPTVRDVKLARKLYKTHTKYSFVDFEHLDEVLRLIVWLEQVENTHLEHHHHHH,soluble
27,PVPRTCWIGPWKKNLAQGKITLKLINWIKKAELKNQPVLIFFPEIEAMNQFAEALVNYDFTRPVTVHSADQLRKEKVEWLREGKIKLLLTTTILERGVTFKDVQVAVFGSEGRIFTEAALVQIAGRAGRKLTHPTGDVCFFHYGKTTEMNRAITHIKKMNQLGFKEG,soluble
28,QDKPVFVYRLIARGTVEEKIQHLQQEKAALADGLFSEGNGDGWKLDEADIDAL,soluble
29,QDSPNAIKAAVISSPMLGFYSGLLPKSIAKILVAIKLKFNNIISNTPWYFLGQKDYSPVNFTDNKLTHSIPRYQYFVDLYKKNKIIQLGGVTTHWLAQSIAAQKELFSKIVQLKTPILLLQASGDTVVCQQAQDDFCQQLHTLQPQSCPNGVPSNIDNAFHELFFETDDLRNKAITQSLAWFEQH,not soluble
30,QGTDQYTILANRIANAVEQYRSQRALDASRERLSLFIDKSPLGVIEWDESFEVVQVNEKGEEILRRGESALAGKGFETLVPDSALDAVEETITALQEGSGGYYTVLDIETGDGEEIVCEWHNRIIREDGETVAIFSQFQEIT,not soluble

# Reference: the DeepSol protein solubility set
